This note sets out measurements from the nanobody polyreactivity screen of Harvey et al. (2022).

A short description of the series: yeast display, Sf9 membrane polyspecificity reagent, FACS + sequencing; frameworks hold sequencing errors. In outline: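 Galactose induction of a Saccharomyces cerevisiae BJ5465 synthetic nanobody display library ran 36–48 hours. The cells were then stained for 1 hour at 4 °C with 10% biotinylated, detergent-solubilized Sf9 membrane reagent, pulled down on streptavidin microbeads and FACS-sorted into low and high (top ~1%) gates on expression and reagent-binding fluorescence. Labels for polyreactivity follow the gate of origin.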
For “QVQLVESGGGLVQAGGSLRLSCAASGRTFQYYAMGWYRQAPGKERELVAAISGIGTSTSYADSVKGRFTISRDNAKNTVYLQMNSLKPEDTAVYYCAARLLVPGSPWYTNYYWGQGTQVTVSS”, the “polyreactivity (PSR sort gate)” value is “low polyreactivity”.

For “QFQLVESGGGLVQAGGSLRLSCAASGRTFGTYAMGWYRQAPGKEREVVAAISTRGGRTFYADSVKGRFTISRDNAKNTVYLQMNSLKPEDTAVYYCAARGTDPGHKYEYWGQGTQVTVSS”, the “polyreactivity (PSR sort gate)” value is “high polyreactivity”.

With “QVQLVESGGGLVQAGGSLRLSCAASGSTFRYYAMGWYRQAPGKERELVAAITSSGGSTYYADSVKGRFTISRDNAKNTVYLQMNSLKPEDTAVYYCAVAVKNWVKLNYWGQGTQVTVSS”, the “polyreactivity (PSR sort gate)” value is “high polyreactivity”.

With “QVQLVESGGGLVQAGGSLRLSCAASGSIFSSYTMGWYRQAPGKERELVASITSGDSTNYADSVKGRFTISRDNAKNTVYLQMNSLKPEDTAVYYCNKSTLGVPVYEVIFEYWGQGTQVTVSS”, the “polyreactivity (PSR sort gate)” value is “low polyreactivity”.

As to “QVQLQESGGGLMQAGGNLRLSCAASGYISTNDDMDWYRQAPGKERELVARIDDGAITNYADSVKGRFTISRDNAKKTVYLQMNSLKPEDTAVYYFAVYSGDDYYHDYWGQGTQVTVSS”, the “polyreactivity (PSR sort gate)” value is reported as “low polyreactivity”.

Turning to “QVQLVESGGGLVQAGGSLRLSCAASGSIFDVNAMGCARQAPGNERELVAGISWSGGSTYYADSVKGRFTISRDNAKNTVYLQMNSLKPEDTAVYYCNAEGPIYFYFYRGMDYWGQGTQVTVSS”, the “polyreactivity (PSR sort gate)” value is “low polyreactivity”.

In the case of “QVQLVESGGGLVQAGGSLRLSCAASGFTLEFYAMGWYRQAPGKERELVASISSGGRTNYADSVKGRFTISRDNAKNTVFLQMNSLKPEDTAVYYCAAEYRSWGRYRYRFNYWGQGTQVTVSS”, the “polyreactivity (PSR sort gate)” value is reported as “high polyreactivity”.

Turning to “QVQLVESGGCLVQAGGSLRLSCAASGRTFYGYAMGWYRQAPGKERELVATITSGGSTNYADSVKGRFTISRDNAKNTVYLQMNSLKPEDTAVYYCAATTRLYGRHRRYNYWGQGTQVTVSS”, the “polyreactivity (PSR sort gate)” value is reported as “high polyreactivity”.

As to “QVQLVESGGGLVQAGGSLRLSCAASGSTFAQNAMGWYRQAPGKEREFVAAITGTVGSTYYADSVKGRFTISRDNAKNTVYLQMNSLKPEDTAVHYCAVVHVFYAVSYFSFYTYDYWGQGTQVTVSS”, the “polyreactivity (PSR sort gate)” value is on record as “low polyreactivity”.

Turning to “QVQLVESGGGLVQAGGSLRLSCAASGLIFAYNTMGWYRQAPGKERELVAGITSSGSTYYADSVKGRFTISRDNEKNTVYLQMNSLKPEDTAVYYCAAEWDDGRSWYWYYLVGFEYWGQGTQVTVSS”, the “polyreactivity (PSR sort gate)” value was “high polyreactivity”.

“QVKLVESGGGLVQSGGSLRLSCAAYGRIFATNAMGWYRPAPGKERELVATITRSAGRTYYADSVKGRFTISRVKAKHSVYLQMNRLKPEDTAVFYFAASYWDTGPGYREYDYWGEGTQVTVSS”: the “polyreactivity (PSR sort gate)” value is “low polyreactivity”.

Consider “QVQLVESGGGLVQAGGSLRLSCAASGITFRRYGMGWYRQAPGKERELVATITSSVGSRTYYADSVKGRFTISRDNAKNTVYLQMNSLKPEDTAVYYCAADHRVYDYEYWGQGTQVTVSS”, for which the “polyreactivity (PSR sort gate)” value is on record as “low polyreactivity”.

Turning to “QVQLVESGGGLVHAGGSLRLSCAASGSTFHYYAMGWYRQPPGKERELDAGITSGGGRTYADSVKGRFTISRDNAKITVYLQMNSLNPEDTAVYYCNARPSTGWTIYGVDYWGQGTQVTVSS”, the “polyreactivity (PSR sort gate)” value is given as “low polyreactivity”.

With “QVQLVESGGGLVQAGGSLRLSCAASGSTFSSYAMGWYRQAPGKERELVAGISWGGSSTDYADSVKGRFTISRDNAKNTVYLQMNSLKPEDTAVYYCARRYRRGWSTLDYWGQGTQVTVSS”, the “polyreactivity (PSR sort gate)” value is “low polyreactivity”.

“QVQLVESGGGLVQAGGSLRLSCAASGGTFGSYAMGWYRQAPGKERELVAAIDYSGADTYYADSVKGRFTISRDNAKNTVFLQMNSLKPEDTAVYYCNAEFESGHDLDWYDYWGQGTQVTVSS”: the “polyreactivity (PSR sort gate)” value is recorded as “low polyreactivity”.

Regarding “QVQLVESGGGLVQAGGSLRLSCAASGSISWKYAMGWSRQAPGKERELVAAISWSGSSTYYADSVKGRFTISRDNAKNTVYLQMNSLKPEDTAVYYCAADRVSRLTNRREYWGQGTQVTVSS”, the “polyreactivity (PSR sort gate)” value is “high polyreactivity”.

Regarding “QVQLVESGGGLVQAGGSLRLSCAASGSTFQWYAMGWYRQAPGKERELVAAINKSGGTTYYADSVKGRFTISRDNAKNTVYLQMNSLKPEDTAVYYCAADTQQRGVYPRWWNPEFDYWGLGTQVTVSS”, the “polyreactivity (PSR sort gate)” value was “low polyreactivity”.

Consider “QVQLVESGGGLVQAGGSLRLSCAASGSIFYLYAMGWYRQAPGKERELVAAISSGGSTNYADSVKGRFTISRDNAKNTVYLQMNSLKPEDTAVYYCAAGYKRLHWPKSDSFHGMYYWGQGTQVTVSS”, for which the “polyreactivity (PSR sort gate)” value is “low polyreactivity”.

Consider “QVQLVESGGGLVQAGGSLRLSCAASGSTFTEYAMGWYRQAPGKERELVAAITNSGSSTNYEDSVKGRFTISRDNAKNTVYLQMNSLKPEDTAVYYCNASSYPWEYYYLYYGYDYWGQGTQVTVSS”, for which the “polyreactivity (PSR sort gate)” value is “low polyreactivity”.

Consider “QVQLVESGGGLVQAGGSLSLSCAASGLTFVYYVMGWYRQAPGKERELVAAISSGGGTYYADSVKGRFTISRDNAKNTVYLQMNSLKPEDTAVYYCAADLLGWFDFDYWGQGTQVTVSS”, for which the “polyreactivity (PSR sort gate)” value was “high polyreactivity”.

Regarding “QVQLVESRGGLVQAGGSLRLSCAASGLIFTVNAMGWYRQAPGKERELVAAISQSGGSTYYADSVKGRFTISRDNAKNTVYLQMNSLKPEDTAVYYCAAKSDPYRHDYWGQGTQVTVSS”, the “polyreactivity (PSR sort gate)” value is on record as “low polyreactivity”.

On to “QVQLVESGGGLVQAGGSLRLSCAASGFTFHSYAMGWYIQAPGKERELVAAISARGGSTYYADSVKGRFTISRDNAKNTVYLQMNSLKPEDTAVYYCAAYSYQVRFYYWGHGTQVTVSS”, for which the “polyreactivity (PSR sort gate)” value was “high polyreactivity”.

Regarding “QVQLVESGGGLVQAGGSLRLSCAASGSTYYNAMGWYIQAPGKERELVAAIRFRSGSTYYADSVKGRFTISRDNAKNTVYLQMNSMKPVDTAVYYCAADNKRSWRYAYNYWGQGTQVTVSS”, the “polyreactivity (PSR sort gate)” value is listed as “high polyreactivity”.

As to “QVQLVESGGGLVQAGGSLRLSCAASGSTFGINAMVWYRQAPGKERELVASITRRGGSTYYADSVKGRFTISRDNAKNTVYLQMNSLKPEDTAVYYCNKTYRYGTPLYDYWGQGTQVTVSS”, the “polyreactivity (PSR sort gate)” value is listed as “high polyreactivity”.

Take “QVQLVESGGGLVQAGGSLRLSCAASGRTFGYYAMGWYRQAPGKERELVAAISTRSGSTYYADSVKGRFTISRDNAKNTVYLQMNSLKPEDTAVYYCDADSYPDYDYWGQGTQVTVSS”: the “polyreactivity (PSR sort gate)” value is “low polyreactivity”.

Consider “QVQLVESGGGLVQAGGSLRLSCAASGFIFWSYAMGWYRQAPGKERELVAAISWSGGRTYYADSVKGRFTISRDNAKNTVYLQMNSLKPEDTAVYYCAAVIRYGSQYPALDYWGQGTQVTVSS”, for which the “polyreactivity (PSR sort gate)” value was “high polyreactivity”.

As to “QVQLVESGGGLVQAGGSLRLSWAASGRIFVLNAMGSYRQAPGKERELVAAISTGASTNYADSVKGRFTISRDNAKNTVYLKMNSLTPEATAVYYCAAAPGSSGARTSYILAYDYWGLGTQVTVSS”, the “polyreactivity (PSR sort gate)” value is on record as “low polyreactivity”.

In the case of “QVQLVESGGGLVQAGGSLRLSCAASGRTFWGNAMGWYRQAPGKDRELVAAITSGGSTYYADSVKGRFTISRDNAKNTVYLQMNSLKPEDTAVYYCATRRIYKWYRYYYWGQGTQVTVSS”, the “polyreactivity (PSR sort gate)” value is listed as “high polyreactivity”.

In the case of “QVQIVESGGGLVQAGGSLRLSCAASGRIFLPYAMGWYRQAPGKERELVAAITQSGVITSYADSVKGRFTISRDNAKNTVYLQMNSLKPEDTAVYYCATVRTVIVFRFPYSYGYWGQGTQVTVSS”, the “polyreactivity (PSR sort gate)” value was “high polyreactivity”.

Take “QVQLVESGGGLVQAGGSLRLSCAASGFTLQGYAMGWYRQAPGKERELVAAIRWIGTSTYYADSVKGRFTISRDNAKNTVYLQMNSLKPEDTAVYYCAAVVRRVRPEGSYNRWGHDYWGQGTQVTVSS”: the “polyreactivity (PSR sort gate)” value is given as “high polyreactivity”.

For “QVQLVESGGCLVQAGGSIRLSCAASGSIFKSNAMGWYRQAPGKERELVAAISNGGITNYADSVKVRFTISRDNAKNTDYLQMNSLKPEDTAVYYCNARNNYWWYCPGYDYWGQGTQLTVSS”, the “polyreactivity (PSR sort gate)” value is reported as “low polyreactivity”.

As to “QVQLVESGGGLVQAGGSLRLSCAASGSIFRYYVTGWYRQAPGKERELVATISSSGGRTYYADSVKGRFTISRDNAKNTVYLQMNSLKPEDTAVYYCNARTSPYSGYSGRYYWGQGTQVTVSS”, the “polyreactivity (PSR sort gate)” value is on record as “high polyreactivity”.

On to “QVQLVESGGGLVQAGGSLRLSCAASGSTYRYTMGWYRQAPGKERELVAAITGSAGRTYYADSVKGRFTISRDNAKNTVYLQMNSLKPEDTAVYYCNKDRPRKFWDYYYWGQGTQVTVSS”, for which the “polyreactivity (PSR sort gate)” value is “high polyreactivity”.

As for “QVQLVESGGGLVQAGGSLRLSCAASGSIFSGYAMGWYRQAPGKERELVAAITRSGGRTYYADSVKGRFTISRDNAKNTVYLQMNSLKPEDTAVYYCATLPRYYGYWGQGTQVTVSS”, the “polyreactivity (PSR sort gate)” value is given as “high polyreactivity”.

As for “QVQLVESGGGLVQAGGSLRLSCAASGRIFFVNAMGWYRQAPGKERELVAAISWSGGNTNYADSVKGRFTISRDNAKNTVYLQMNSLKPEDTAVYYCAADNSVGEYQRVDYDYWGQGTQVSVSS”, the “polyreactivity (PSR sort gate)” value is on record as “low polyreactivity”.

Consider “QVQIVESGGGLVQAGGSLRLSCAASGFIFQAYAMGWYRQAPGKERELVAAISSTSGRTYYADSVKGRFTISRDNAKNTVYLQMNSLKPEDTAVYYCARAVSSRNSGEYHYWGQGTQVTVSS”, for which the “polyreactivity (PSR sort gate)” value is recorded as “high polyreactivity”.

Consider “QVQLVESGGGLVQAGGSLRLSCAASRLIVYQNAMGWYRQAPGKEREFVAAISWSGGRTYYADSVKGRFTISRDNAKNTVYLQMNSLKPEDTAVYYCAARFTYYTYEFEYWGQGTQVTVSS”, for which the “polyreactivity (PSR sort gate)” value is “high polyreactivity”.

Take “QVQLVESGGGLVQAGGSHRLSCAASGSTFKNYPMGGYRQAPGQEREFVAAINVSGARTYYADSVKGRFTISRDNAKNTVYLQMNSLKPEDTAVYYCAAYYSGVGYDYWGQGTQVTVSS”: the “polyreactivity (PSR sort gate)” value was “high polyreactivity”.

In the case of “QVQLVESGGRLVQAGGSLRLSCAASGSTFGWYTMGWYRQAPGKERELVAAITSRGTRTSYADSVKARFTISRDNAKNTVYLQMNSLKPEDTAVYYCAARVFRGLGEYYWGQGTQVTVSS”, the “polyreactivity (PSR sort gate)” value is “high polyreactivity”.

“QVQLVESGGGLVQAGGSLRLSCAASGIIFSQYAMGWYRQAPGKERELVAGITRSGGSTYYADSVKGRFSISRDNAKNTVYLQMNSLKPDDTAVYYCAAVQRYEYGYWGQGTQVTVSS”: the “polyreactivity (PSR sort gate)” value is on record as “high polyreactivity”.
